From US20240261427A1, “LINKERS, DRUG LINKERS AND CONJUGATES THEREOF AND METHODS OF USING THE SAME” (ProfoundBio US Co., priority 2021, published 2024)

System: Hela cells
Experiment: Flow cytometry binding to Hela cells
Assay type: cell-based, human
Conditions: transfection supernatant, FIG. 6
Experimental: The binding activity of the antibodies to Hela cells (ATCC® CCL-2, provided by COBIOER) and to RPTEC/TERT1 cells (ATCC® CRL-4031, provided by COBIOER) was tested by flow cytometry using the transfection supernatants. Briefly, target cells were digested with 0.02% EDTA-2Na, centrifuged at 1500 rpm for 3 mins, and resuspended with PBS. After counting, the cells were added to a 1.5 ml centrifuge tube with 1×10^6 cells per tube, centrifuged at 1500 rpm for 5 minutes, and the supernatant was discarded. Then all the operations were carried out on an ice bath. 100 μL of transfection supernatant was added to each 1.5 ml centrifuge tube. Blank cells, blank cells plus secondary antibody, medium and HEK293 supernatant were set up as the controls. The reaction was performed on an ice bath for 1 hour. Then the cells were pelleted and washed twice with PBS. The secondary antibody, goat anti-Human IgG (PE, abcam, ab98596), was diluted (1:200) and added using 100 μL per tube. The reaction was performed on an ice bath for 1 hour in the dark. The cells were pelleted again and washed twice with PBS, resuspended in 300 μL PBS, and FL2 fluorescence readings were measured by cytometry. The results were analyzed by FlowJo™10 software.
Anti-FOLR1 antibody binding to Hela and RPTEC/TERT1 cells was tested by FACS. The study was carried out as described above. […]

B1: F40: anti-FOLR1 antibody clone; "Clone F40 has a different HCDRs and LCDRs, and with different HFR and LFR" (antibody, V domains shown)
VH: EVQLLESGGGVVQPGRSLRLSCAASGFTFSSYAMHWVRQAPGKGLEWVAVISYDGSNKYYADSVKGRFIISRDNSKNTVYLQMNSLRAEDTAVYYCARPTYVFTYTGSSFDYWGQGTQVTVSS
VL: DIQVTQSPSSLSASLGDTVSITCRASRGLTDSVAWYQQKPGQAPKLLIYAASTLQSGVPSRFGGSGSGSYFTLTITSLQPEDVATYYCQNYKSAPWTFGQGTKVEIK
Which Hela cell binding does the source give for B1 here?
The Hela cell binding was “weakly positive”.
